Assay results as given in PMC9034062, “Phospholipids alter activity and stability of mitochondrial membrane-bound ubiquitin ligase MARCH5” (Life Science Alliance, 2022).

Target: the molecule itself
Assay: cross-linking; BS3 cross-linker added to 19.4 uM MARCH5 in 50 mM Hepes pH 7.7, 100 mM NaCl, 5% glycerol, 0.1 mM TCEP, 0.001% LMNG; without lipid (control) and with cardiolipin at 1:10 molar ratio of protein to lipid; samples at 0, 15, 30 and 60 min; SDS-PAGE

B1: MARCH5 (enzyme, human, UniProt Q9NX47 1-278, looked up)
chain: MPDQALQQMLDRSCWVCFATDEDDRTAEWVRPCRCRGSTKWVHQACLQRWVDEKQRGNSTARVACPQCNAEYLIVFPKLGPVVYVLDLADRLISKACPFAAAGIMVGSIYWTAVTYGAVTVMQVVGHKEGLDVMERADPLFLLIGLPTIPVMLILGKMIRWEDYVLRLWRKYSNKLQILNSIFPGIGCPVPRIPAEANPLADHVSATRILCGALVFPTIATIVGKLMFSSVNSNLQRTILGGIAFVAIKGAFKVYFKQQQYLRQAHRKILNYPEQEEA
notes: human MARCH5, cDNA codon-optimised for yeast (GenScript); Integral membrane protein, kept in the detergent LMNG; By the printed primers the TEV site is ENLYFQ/SQF, so ENLYFQ probably stays at the C-terminus after cleavage (surmised); also called M5; source: S. cerevisiae PAP1500, purified (DDM solubilisation, Ni resin with exchange to LMNG, TEV cleavage, reverse IMAC); not shown: yEGFP, …
B1: binds.
